Reference: patent publication US20240122847A1, “ORAL POLYPEPTIDE FORMULATIONS” (Bhami's Research Laboratory, Pvt. Ltd., priority 2022, published 2024)
Read-outs that look alike come from different tables or passages of the source.

Assays:
[1] = minipig, in vivo
Procedure: Pharmacokinetic analysis was conducted in Female Minipigs weighing 12±1 kg for 2 days. Pigs in the treatment group were fasted overnight prior to the test sample administration. All the test animals in the treatment groups were administered with respective test formulation to the pre-designated animals. The animal was restrained and its head was held vertically, the jaws were pulled away, the tongue was gently lifted with a forceps followed by placement of a polypeptide formulation as described herein buccally/sublingually. After placing a polypeptide formulation as described herein, the snout was held together for about 1-2 mins to prevent the chewing of the polypeptide formulation. The time of dosage of each animal was noted. Blood samples were collected at aforementioned time points 0 min, 15 min, 30 min, 1 hour, 2 hours, 4 hours, 8 hours, 12 hours, 24 hours, and 48 hours into an EDTA-blood collection tubes for the separation of plasma to determine insulin levels by ELISA. Plasma samples collected at different time points were analyzed by ELISA kit according to ABBEXA protocol. This kit is based on sandwich enzyme-linked immuno-sorbent assay technology. An antibody, anti-insulin was pre-coated onto a 96-well plate. Standards, test samples, and biotin-conjugated reagent were added to the wells and incubated. The HRP-conjugated reagent was then added, and the whole plate was incubated. Unbound conjugates were removed using wash buffer at each stage. TMB substrate was used to quantify the HRP enzymatic reaction. After TMB substrate was added, only wells that contain sufficient INS will produce a blue colored product, which then changes to yellow after adding the acidic stop solution. The intensity of the yellow color is proportional to the INS amount bound on the plate. The Optical Density (OD) was measured spectrophotometrically at 450 nm in a microplate reader, from which the concentration of INS can be calculated.
Insulin was analyzed in plasma using a specific enzyme linked immunosorbent assay (ELISA). Pharmacokinetic endpoints were determined using noncompartmental methods using PK Solutions software. AUC was approximated using the trapezoidal rule on the observed concentrations. C max for each Insulin dose was derived as the maximum of all valid concentrations, and t max was then determined as the corresponding time point to C max. The terminal elimination rate constant (λz) was estimated by log-linear regression on the terminal part of the concentration-time curve, and t ½ was then calculated as t ½=ln 2/λz.

[2] = rat, in vivo
Procedure: Pharmacokinetic analysis was conducted in Female rats weighing 220-250 grams for 2 days. Rats in the oral treatment group was fasted overnight prior to the test sample administration. All the test animals in the treatment groups were administered with respective test formulation to the pre-designated animals. The animal was restrained and its head was held vertically, the jaws were pulled away, the tongue was gently lifted with a forceps followed by placement of a polypeptide formulation as described herein buccally/sublingually. After placing a polypeptide formulation as described herein, the snout was held together for about 1-2 mins to prevent the chewing of the polypeptide formulation. The time of dosage of each animal was noted. Blood samples were collected at aforementioned time points 0 min, 15 min, 30 min, 1 hour, 2 hours, 4 hours, 8 hours, 12 hours, 24 hours, and 48 hours into an EDTA-blood collection tubes for the separation of plasma to determine insulin levels by ELISA. Plasma samples collected at different time points were analyzed by ELISA kit according to ABBEXA protocol. This kit is based on sandwich enzyme-linked immuno-sorbent assay technology. An antibody, anti-insulin was pre-coated onto a 96-well plate. Standards, test samples, and biotin-conjugated reagent were added to the wells and incubated. The HRP-conjugated reagent was then added, and the whole plate was incubated. Unbound conjugates were removed using wash buffer at each stage. TMB substrate was used to quantify the HRP enzymatic reaction. After TMB substrate was added, only wells that contain sufficient INS will produce a blue colored product, which then changes to yellow after adding the acidic stop solution. The intensity of the yellow color is proportional to the INS amount bound on the plate. The Optical Density (OD) was measured spectrophotometrically at 450 nm in a microplate reader, from which the concentration of INS can be calculated.
Insulin was analyzed in plasma using a specific enzyme linked immunosorbent assay (ELISA). Pharmacokinetic endpoints were determined using noncompartmental methods using PK Solutions software. AUC was approximated using the trapezoidal rule on the observed concentrations. C max for each Insulin dose was derived as the maximum of all valid concentrations, and t max was then determined as the corresponding time point to C max. The terminal elimination rate constant (λz) was estimated by log-linear regression on the terminal part of the concentration-time curve, and t ½ was then calculated as t½=ln 2/λz.

[3] = in vivo
[4] = Pharmacokinetics of hGH in minipigs, sugar truffle buccal/sublingual vs intravenous, plasma hGH ELISA; type: in vivo; settings: for Mean hGH levels: pigs, plasma
Procedure: Pharmacokinetic analysis was conducted in Female Minipigs weighing 12±1 kg for 2 days. Pigs in the oral treatment group was either fasted overnight or fed prior to the test sample administration. All the test animals in the treatment groups were administered with respective test formulation to the pre-designated animals. The animal was restrained and its head was held vertically, the jaws were pulled away, the tongue was gently lifted with a forceps followed by placement of a polypeptide formulation as described herein buccally/sublingually. After placing a polypeptide formulation as described herein, the snout was held together for about 1-2 mins to prevent the chewing of the polypeptide formulation. The time of dosage of each animal was noted. […] Plasma samples collected at different time points were analyzed by ELISA kit according to Creative Diagnostics protocol. This kit is based on sandwich enzyme-linked immuno-sorbent assay technology. […] Standards, test samples, and biotin-conjugated reagent were added to the wells and incubated. The HRP-conjugated reagent was then added, and the whole plate was incubated. Unbound conjugates were removed using wash buffer at each stage. TMB substrate was used to quantify the HRP enzymatic reaction.
Pharmacokinetic endpoints were determined using noncompartmental methods using PK Solutions software. AUC was approximated using the trapezoidal rule on the observed concentrations. […] The terminal elimination rate constant (λz) was estimated by log-linear regression on the terminal part of the concentration-time curve, and t ½ was then calculated as t ½=ln 2/X z.

[5] = minipigs, buccal/sublingual hGH formulation
[6] = minipigs, intravenous hGH formulation

Substance: Human Insulin R: peptide/protein hormone structurally identical to human insulin synthesized through rDNA technology; SC marketed liquid or lyophilized microparticles in sugar truffle shell
- AUC 0-inf/D_obs ([1]; 2.08 mg): 7418.052 mU/L*h/(mg)
- AUC 0-inf/D_pred ([1]; 2.08 mg): 7439.299 mU/L*h/(mg)
- AUC 0-inf_obs ([1]; 2.08 mg): 2574.064 mU/L*h
- AUC 0-inf_pred ([1]; 2.08 mg): 2581.437 mU/L*h
- AUC 0-t ([1]; 2.08 mg): 2511.461 mU/L*h
- AUC t-inf_obs ([1]; 2.08 mg): 62.603 mU/L*h
- AUC t-inf_pred ([1]; 2.08 mg): 69.975 mU/L*h
- Cl/F_obs ([1]; 2.08 mg): 0.000 (mg)/(mU/L)/h
- Cl/F_pred ([1]; 2.08 mg): 0.000 (mg)/(mU/L)/h
- Cmax ([1]; 2.08 mg): 330.950 mU/L
- MRT 0-inf_obs ([1]; 2.08 mg): 11.492 h
- MRT 0-inf_pred ([1]; 2.08 mg): 11.639 h
- MRT 0-t ([1]; 2.08 mg): 10.214 h
- Tmax ([1]; 2.08 mg): 0.500 h
- Vz/F_obs ([1]; 2.08 mg): 0.002 (mg)/(mU/L)
- Vz/F_pred ([1]; 2.08 mg): 0.002 (mg)/(mU/L)
- t½ ([1]; 2.08 mg): 10.234 h
- AUC 0-inf/D_obs ([1]; sc, 0.347 mg): 3483.581 mU/L*h/(mg)
- AUC 0-inf/D_pred ([1]; sc, 0.347 mg): 3434.617 mU/L*h/(mg)
- AUC 0-inf_obs ([1]; sc, 0.347 mg): 1208.803 mU/L*h
- AUC 0-inf_pred ([1]; sc, 0.347 mg): 1191.812 mU/L*h
- AUC 0-t ([1]; sc, 0.347 mg): 1101.784 mU/L*h
- AUC t-inf_obs ([1]; sc, 0.347 mg): 107.019 mU/L*h
- AUC t-inf_pred ([1]; sc, 0.347 mg): 90.028 mU/L*h
- Cl/F_obs ([1]; sc, 0.347 mg): 0.000 (mg)/(mU/L)/h
- Cl/F_pred ([1]; sc, 0.347 mg): 0.000 (mg)/(mU/L)/h
- Cmax ([1]; sc, 0.347 mg): 316.870 mU/L
- MRT 0-inf_obs ([1]; sc, 0.347 mg): 13.028 h
- MRT 0-inf_pred ([1]; sc, 0.347 mg): 12.134 h
- MRT 0-t ([1]; sc, 0.347 mg): 6.938 h
- Tmax ([1]; sc, 0.347 mg): 2.000 h
- Vz/F_obs ([1]; sc, 0.347 mg): 0.008 (mg)/(mU/L)
- Vz/F_pred ([1]; sc, 0.347 mg): 0.008 (mg)/(mU/L)
- t½ ([1]; sc, 0.347 mg): 19.218 h
- AUC 0-inf/D_obs ([2]; 0.52 mg): 4373.827 mU/L*h/(mg)
- AUC 0-inf/D_pred ([2]; 0.52 mg): 4364.913 mU/L*h/(mg)
- AUC 0-inf_obs ([2]; 0.52 mg): 2274.390 mU/L*h
- AUC 0-inf_pred ([2]; 0.52 mg): 2269.755 mU/L*h
- AUC 0-t ([2]; 0.52 mg): 2204.699 mU/L*h
- AUC t-inf_obs ([2]; 0.52 mg): 69.691 mU/L*h
- AUC t-inf_pred ([2]; 0.52 mg): 65.056 mU/L*h
- Cl/F_obs ([2]; 0.52 mg): 0.000 (mg)/(mU/L)/h
- Cl/F_pred ([2]; 0.52 mg): 0.000 (mg)/(mU/L)/h
- Cmax ([2]; 0.52 mg): 331.520 mU/L
- MRT 0-inf_obs ([2]; 0.52 mg): 11.202 h
- MRT 0-inf_pred ([2]; 0.52 mg): 11.097 h
- MRT 0-t ([2]; 0.52 mg): 9.580 h
- Tmax ([2]; 0.52 mg): 0.250 h
- Vz/F_obs ([2]; 0.52 mg): 0.003 (mg)/(mU/L)
- Vz/F_pred ([2]; 0.52 mg): 0.003 (mg)/(mU/L)
- t½ ([2]; 0.52 mg): 10.064 h
- AUC 0-inf/D_obs ([2]; sc, 0.087 mg): 6997.06 mU/L*h/(mg)
- AUC 0-inf/D_pred ([2]; sc, 0.087 mg): 6935.40 mU/L*h/(mg)
- AUC 0-inf_obs ([2]; sc, 0.087 mg): 2427.98 mU/L*h
- AUC 0-inf_pred ([2]; sc, 0.087 mg): 2406.58 mU/L*h
- AUC 0-t ([2]; sc, 0.087 mg): 2382.00 mU/L*h
- AUC t-inf_obs ([2]; sc, 0.087 mg): 45.98 mU/L*h
- AUC t-inf_pred ([2]; sc, 0.087 mg): 24.58 mU/L*h
- Cl/F_obs ([2]; sc, 0.087 mg): 0.00 (mg)/(mU/L)/h
- Cl/F_pred ([2]; sc, 0.087 mg): 0.00 (mg)/(mU/L)/h
- Cmax ([2]; sc, 0.087 mg): 332.03 mU/L
- MRT 0-inf_obs ([2]; sc, 0.087 mg): 8.70 h
- MRT 0-inf_pred ([2]; sc, 0.087 mg): 8.26 h
- MRT 0-t ([2]; sc, 0.087 mg): 7.74 h
- Tmax ([2]; sc, 0.087 mg): 0.50 h
- Vz/F_obs ([2]; sc, 0.087 mg): 0.00 (mg)/(mU/L)
- Vz/F_pred ([2]; sc, 0.087 mg): 0.00 (mg)/(mU/L)
- t½ ([2]; sc, 0.087 mg): 7.21 h
- bioavailability when compared to SC or IV administration [3]: greater than 7%

Substance: hGH: human growth hormone (human recombinant), Norditropin NordiFlex; lyophilized microparticles in sugar truffle shell
- AUC 0-inf/D_obs [4, 5]: 49506.598 pg·h/mL/mg
- AUC 0-inf/D_pred [4, 5]: 49536.628 pg·h/mL/mg
- AUC 0-inf_obs [4, 5]: 123.766495 ng·h/mL
- AUC 0-inf_pred [4, 5]: 123.84157 ng·h/mL
- AUC 0-t [4, 5]: 118.956091 ng·h/mL
- AUC t-inf_obs [4, 5]: 4.810404 ng·h/mL
- AUC t-inf_pred [4, 5]: 4.885479 ng·h/mL
- AUMC 0-inf_obs [4, 5]: 1203569.518 pg/ml*h^2
- AUMC 0-inf_pred [4, 5]: 1208579.228 pg/ml*h^2
- AUMC 0-t [4, 5]: 882575.168 pg/ml*h^2
- AUMC t-inf_obs [4, 5]: 320994.350 pg/ml*h^2
- AUMC t-inf_pred [4, 5]: 326004.060 pg/ml*h^2
- Cl/F_obs [4, 5]: 0.000 (mg)/(pg/ml)/h
- Cl/F_pred [4, 5]: 0.000 (mg)/(pg/ml)/h
- Clast_obs [4, 5]: 0.25684 ng/mL
- Clast_pred [4, 5]: 0.260848 ng/mL
- Cmax [4, 5]: 27.12344 ng/mL
- Lambda_z [4, 5]: 0.053 h⁻¹
- MRT 0-inf_obs [4, 5]: 9.725 h
- MRT 0-inf_pred [4, 5]: 9.759 h
- MRT 0-t [4, 5]: 7.419 h
- Tlag [4, 5]: 0.000 h
- Tlast [4, 5]: 48.000 h
- Tmax [4, 5]: 1.000 h
- Vz/F_obs [4, 5]: 0.000 (mg)/(pg/ml)
- Vz/F_pred [4, 5]: 0.000 (mg)/(pg/ml)
- t½ [4, 5]: 12.982 h
- AUC 0-inf/D_obs [4, 6]: 485023.532 pg·h/mL/mg
- AUC 0-inf/D_pred [4, 6]: 479198.128 pg·h/mL/mg
- AUC 0-inf_obs [4, 6]: 160.057765 ng·h/mL
- AUC 0-inf_pred [4, 6]: 158.135382 ng·h/mL
- AUC 0-t [4, 6]: 154.059131 ng·h/mL
- AUC t-inf_obs [4, 6]: 5.998634 ng·h/mL
- AUC t-inf_pred [4, 6]: 4.076251 ng·h/mL
- AUMC 0-inf_obs [4, 6]: 1696005.242 pg/ml*h^2
- AUMC 0-inf_pred [4, 6]: 1578826.575 pg/ml*h^2
- AUMC 0-t [4, 6]: 1330359.118 pg/ml*h^2
- AUMC 0-t/0-inf_pred [4, 6]: 0.843
- AUMC t-inf_obs [4, 6]: 365646.123 pg/ml*h^2
- AUMC t-inf_pred [4, 6]: 248467.457 pg/ml*h^2
- C0 [4, 6]: 18.14454 ng/mL
- Cl_obs [4, 6]: 0.000 (mg)/(pg/ml)/h
- Clast_obs [4, 6]: 0.46304 ng/mL
- Clast_pred [4, 6]: 0.31465 ng/mL
- Cmax [4, 6]: 22.5132 ng/mL
- Lambda_z [4, 6]: 0.077 h⁻¹
- MRT 0-inf_obs [4, 6]: 10.596 h
- MRT 0-inf_pred [4, 6]: 9.984 h
- MRT 0-t [4, 6]: 8.635 h
- Tlast [4, 6]: 48.000 h
- Tmax [4, 6]: 0.500 h
- Vss_obs [4, 6]: 0.000 (mg)/(pg/ml)
- Vz_obs [4, 6]: 0.000 (mg)/(pg/ml)
- t½ [4, 6]: 8.980 h
- Mean hGH levels ([4]; GI- IV, time 0 hrs): 18144.54 ± 1619.64 pg/mL
- Mean hGH levels ([4]; GI- IV, time 0.08 hrs): 20014.87 ± 620.32 pg/mL
- Mean hGH levels ([4]; GI- IV, time 0.5 hrs): 22513.2 ± 562.85 pg/mL
- Mean hGH levels ([4]; GI- IV, time 1 hrs): 22130.7 ± 728.54 pg/mL
- Mean hGH levels ([4]; GI- IV, time 4 hrs): 14910.13 ± 2908.87 pg/mL
- Mean hGH levels ([4]; GI- IV, time 8 hrs): 1159.19 ± 226.15 pg/mL
- Mean hGH levels ([4]; GI- IV, time 24 hrs): 1495.55 ± 291.77 pg/mL
- Mean hGH levels ([4]; GI- IV, time 48 hrs): 463.04 ± 90.34 pg/mL
- Mean hGH levels ([4]; GII- Buccal/sublingual, time 0 hrs): 20672.24 ± 1140.76 pg/mL
- Mean hGH levels ([4]; GII- Buccal/sublingual, time 0.08 hrs): 18582.31 ± 1303.34 pg/mL
- Mean hGH levels ([4]; GII- Buccal/sublingual, time 0.5 hrs): 26137.66 ± 4718.88 pg/mL
- Mean hGH levels ([4]; GII- Buccal/sublingual, time 1 hrs): 27123.44 ± 382.69 pg/mL
- Mean hGH levels ([4]; GII- Buccal/sublingual, time 4 hrs): 2681.8 ± 1281.33 pg/mL
- Mean hGH levels ([4]; GII- Buccal/sublingual, time 8 hrs): 2208.63 ± 86.73 pg/mL
- Mean hGH levels ([4]; GII- Buccal/sublingual, time 24 hrs): 971.98 ± 38.36 pg/mL
- Mean hGH levels ([4]; GII- Buccal/sublingual, time 48 hrs): 256.84 ± 13.49 pg/mL
